Experiment [1] has as its target human GLP-1 receptor on stably transfected CHO cells (human) (UniProt P43220).
Experiment [2] addresses T1, recombinant human PCSK9 (proprotein convertase subtilisin/kexin type 9) (human, UniProt Q8NBP7).
T1 construct: also called recombinant PCSK9; source: recombinant
Briefly: SPR; sensorgrams of recombinant human PCSK9 binding to Ab#2 and to Ab#2_GLP1; typical of 8 independent experiments; set-up and conditions not told in the main text. As to conditions: both partners purified.

The results in this text go back to publication PMC6277417 (Scientific Reports, 2018).

human GLP-1 receptor on stably transfected CHO cells (human), sequence (P43220 24-463): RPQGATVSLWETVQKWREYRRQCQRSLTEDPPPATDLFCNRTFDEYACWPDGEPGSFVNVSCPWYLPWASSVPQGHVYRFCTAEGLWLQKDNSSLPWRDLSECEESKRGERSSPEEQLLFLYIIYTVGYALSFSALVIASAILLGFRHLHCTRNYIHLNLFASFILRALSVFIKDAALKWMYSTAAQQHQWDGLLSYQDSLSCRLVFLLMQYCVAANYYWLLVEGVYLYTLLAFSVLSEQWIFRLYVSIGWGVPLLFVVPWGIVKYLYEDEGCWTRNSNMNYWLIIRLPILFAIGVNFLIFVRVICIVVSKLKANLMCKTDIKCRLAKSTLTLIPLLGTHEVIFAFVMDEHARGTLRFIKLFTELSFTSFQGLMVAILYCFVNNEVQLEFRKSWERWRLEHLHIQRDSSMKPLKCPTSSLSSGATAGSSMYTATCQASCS

B1: Ab#2_GLP1: DPP-4-resistant GLP-1 analogue peptide fused by the [G4S]3A linker to the light chain of anti-PCSK9 Ab#2 (antibody, V domains shown)
VH: QVQLVQSGAEVKKPGASVKVSCKASGYTFTSYYMHWVRQAPGQGLEWMGEIHPSGGRTNYNEKFKSRVTMTRDTSTSTVYMELSSLRSEDTAVYYCARERPLYASDLWGQGTTVTVSS
VL: DIQMTQSPSSLSASVGDRVTITCKASQDVHTAVAWYQQKPGKAPKLLIYHASYRYTGVPSRFSGSGSGTDFTFTISSLQPEDIATYYCQQRYSLWRTFGQGTKLEIK
notes: also called non-glycosylated Ab#2_GLP1 fusion; source: CHO cells, transient co-transfection, purified (Protein A MabSelectSure)
In turn, B1 gave a potency in the cAMP accumulation assay, CHO cells expressing human GLP-1R in experiment [1] of 0.087 nM. Moreover, in experiment [2], the binding result is “binds”.

B2: anti-PCSK9 antibody Ab#2 (antibody, V domains shown)
VH: B1 VH
VL: B1 VL
notes: also called anti-PCSK9 Ab#2; source: CHO cells, transient co-transfection, purified (Protein A MabSelectSure)
On to B2, for which the binding result in experiment [2] was “binds”.
